Patent US20090202526A1 (RINAT NEUROSCIENCE, published 2009)

What was measured:
[1] = biological target: T1, Human trkC-Fc fusion protein (human, UniProt Q16288 32-429); experiment: BIAcore SPR, Fab over immobilised human trkC-Fc
T1 construct: Immobilised on CM5 chip for BIAcore; also called htrkC; not shown: Fc part not described
Description: (§1) Affinities of anti-trkC Fabs and monoclonal antibodies were determined using the BIAcore 3000™ surface plasmon resonance (SPR) system (BIAcore, INC, Piscaway N.J.). CM5 chips were activated with N-ethyl-N′-(3-dimethylaminopropyl)-carbodiimide hydrochloride (EDC) and N-hydroxysuccinimide (NHS) according to the supplier's instructions. Human or rat trkC-Fc fusion protein was diluted into 10 mM sodium acetate pH 5.0 and injected over the activated chip at a concentration of 0.005 mg/mL. Using variable flow time across the individual chip channels, two ranges of antigen density were achieved: 200-400 response units (RU) for detailed kinetic studies and 500-1000 RU for screening assays. The chip was blocked with ethanolamine. […] HBS-EP buffer (0.01M HEPES, pH 7.4, 0.15 NaCl, 3 mM EDTA, 0.005% Surfactant P20) was used as running buffer for all the BIAcore assays. […] The concentrations of the Fab proteins are determined by ELISA and/or SDS-PAGE electrophoresis using a Fab of known concentration (as determined by amino acid analysis) as a standard. Kinetic association rates (kₒₙ) and dissociation rates (koff) are obtained simultaneously by fitting the data to a 1:1 Langmuir binding model (Karlsson, R. Roos, H. Fagerstam, L. Petersson, B. (1994). Methods Enzymology 6. 99-110) using the BlAevaluation program. Equilibrium dissociation constant (KD) values are calculated as koff/kₒₙ.
We prepared antibody clones bearing the CDR and/or framework region substitution mutations shown in Table 1 and determine KD and other kinetic parameters using BIAcore analysis as described herein.

[2] = biological target: T1, Human trkC-Fc fusion protein; experiment: BIAcore SPR, human trkC-Fc on chip; KD calculated from koff with 2256 kon 5E5 1/Ms
[3] = biological target: T2, Rat trkC-Fc fusion protein (rat, UniProt Q03351 32-429); experiment: BIAcore SPR, Fab over immobilised rat trkC-Fc
T2 construct: Immobilised on CM5 chip for BIAcore; not shown: Fc part not described
Description: as §1

Row | Binder | koff [1] [s⁻¹] | Kd [2] [nM] | Kd [3] [nM] | koff [3] [s⁻¹] | kon [3] [M⁻¹ s⁻¹] | Kd [1] [nM] | kon [1] [M⁻¹ s⁻¹]
1 | Fab clone 129(T8) (Fab, V domains shown) VH: QVQLVQSGAEVKKPGASVKVSCKASGYTFTSYWMHWVRQAPGQGLEWMGEIYPSNGRTNYNEKFKSRATMTGDKSTSTVYMELSSLRSEDTAVYYCARKYYYGNSRRSWYFDVWGQGTTVTVS VL: DIQMTQSPSSLSASVGDRVTITCRASESVDNYGISFMNWYQQKPGKAPKLLIYAASNQGSGVPSRFSGSGSGTDFTFTISSLQPEDIATYYCQQSKTVPRTFGQGTKLEIKR | 0.0016 | 3 | – | – | – | – | –
2 | Fab clone 129(C28) (Fab, V domains shown) VH: QVQLVQSGAEVKKPGASVKVSCKASGYTFTSYWMHWVRQAPGQGLEWMGEIYPSNGRTNYNEKFKSRATMTGDTSTSTVYMQLSSLRSEDTAVYYCARKYYYGNSQRSWYFDVWGQGTTVTVS VL: DIQMTQSPSSLSASVGDRVTITCRASESVDNYGISFMNWYQQKPGQAPKLLIYAASNQGSGVPSRFSGSGSGTDFTFTISSLQPEDIATYYCQQSKTVPRTFGQGTKLEIKR | 0.0019 | 3.6 | – | – | – | – | –
3 | Fab clone 129(C36) (Fab, V domains shown) VH: QVQLVQSGAEVKKPGASVKVSCKASGYTFTSYWMHWVRQAPGQGLEWMGEIYPSNGRTNYNEKFKSRVTMTLDKSTSTVYMQLSSLRSEDTAVYYCARKYYYGNSRRSWYFDVWGQGTTVTVS VL: DIQMTQSPSSLSASVGDRVTITCRASESVDNYGISFMNWYQQKPGKPPKLLIYAASNQGSGVPSRFSGSGSGTDFTFTISSLQPEDIATYYCQQSKAVPRTFGQGTKLEIKR | 0.002 | 3.8 | – | – | – | – | –
4 | Fab clone 129(T6) (Fab, V domains shown) VH: QVQLVQSGAEVKKPGASVKVSCKASGYTFTSYWMHWVRQAPGQGLEWMGEIYPSNGRTNYNEKFKSRVTMTGDTSTSTVYMQLSSLRSEDTAVYYCARKYYYGNSKRSWYFDVWGQGTTVTVS VL: DIQMTQSPSSLSASVGDRVTITCRASESVDNYGISFMNWYQQKPGQAPKLLIYAASNQGSGVPSRFSGSGSGTDFTFTISSLQPEDIATYYCQQSKEVPRTFGQGTKLEIKR | 0.0034 | 6.4 | – | – | – | – | –
5 | Fab clone 129(C14) (Fab, V domains shown) VH: QVQLVQSGAEVKKPGASVKVSCKASGYTFTSYWMHWVRQAPGQGLEWMGEIYPSNGRTNYNEKFKSRVTMTRDKSTSTVYMHLSSLRSEDTAVYYCARKYYYGNSRRSWYFDVWGQGTTVTVS VL: DIQMTQSPSSLSASVGDRVTITCRASESVDNYGISFMNWYQQKPGQAPKLLIYAASNQGSGVPSRFSGSGSGTDFTFTISSLQPEDIATYYCQQSKEVPRTFGQGTKLEIKR | 0.0017 | 3.2 | – | – | – | – | –
6 | Fab clone 129(C26) (Fab, V domains shown) VH: QVQLVQSGAEVKKPGASVKVSCKASGYTFTSYWMHWVRQAPGQGLEWMGEIYPSNGRTNYNEKFKSRVTMTGDKSTSTVYMELSSLRSEDTAVYYCARKYYYGNSSRSWYFDVWGQGTTVTVS VL: DIQMTQSPSSLSASVGDRVTITCRASESVDNYGISFMNWYQQKPGQAPKLLIYAASNQGSGVPSRFSGSGSGTDFTFTISSLQPEDIATYYCQQSKSVPRTFGQGTKLEIKR | 0.007 | 13.2 | – | – | – | – | –
7 | Fab clone 129(C16) (Fab, V domains shown) VH: QVQLVQSGAEVKKPGASVKVSCKASGYTFTSYWMHWVRQAPGQGLEWMGEIYPSNGRTNYNEKFKSRVTMTLDTSTSTVYMQLSSLRSEDTAVYYCARKYYYGNSKRSWYFDVWGQGTTVTVS VL: DIQMTQSPSSLSASVGDRVTITCRASESVDNYGISFMNWYQQKPGKPPKLLMYAASNQGSGVPSRFSGSGSGTDFTFTISSLQPEDIATYYCQQSKEVPRTFGQGTKLEIKR | 0.0025 | 4.7 | – | – | – | – | –
8 | Fab clone 129(C2) (Fab, V domains shown) VH: QVQLVQSGAEVKKPGASVKVSCKASGYTFTSYWMHWVRQAPGQGLEWMGEIYPSNGRTNYNEKFKSRVTMTGDTSTSTVYMQLSSLRSEDTAVYYCARKYYYGNSKRSWYFDVWGQGTTVTVS VL: DIQMTQSPSSLSASVGDRVTITCRASESVDNYGISFMNWYQQKPGQPPKLLIYAASNQGSGVPSRFSGTGSGTDFTFTISSLQPEDIATYYCQQSKEVPRTFGQGTKLEIKR | 0.0025 | 4.7 | – | – | – | – | –
9 | Fab clone 129(T8)(H8xE10)(10B)(E2) (Fab, V domains shown) VH: QVQLVQSGAEVKKPGASVKVSCKASGYTFTSYRIHWVRQAPGQGLEWMGEIYPSNGRTNYNEKFKSRVTMTRDTSTSTVYMELSSLRSEDTAVYYCARKYYYGNTRRSWYFDVWGQGTTVTVS VL: DIQMTQSPSSLSASVGDRVTITCRASESIDNYGISFLAWYQQKPGKAPKLLIYAASNRGSGVPSRFSGSGSGTDFTFTISSLQPEDIATYYCQQSKTVPRTFGQGTKLEIKR | 0.00036 | – | 6 | 0.0094 | 1.5e+06 | 0.25 | 1.4e+06
10 | Fab clone 129(T8)(H8xE10)(10B)(C7) (Fab, V domains shown) VH: QVQLVQSGAEVKKPGASVKVSCKASGYTFTSYRIHWVRQAPGQGLEWMGEIYPSNTRTNYNEKFKSRVTMTRDTSTSTVYMELSSLRSEDTAVYYCARKYYYGNTRRSWYFDVWGQGTTVTVS VL: DIQMTQSPSSLSASVGDRVTITCRASESIDNYGISFLAWYQQKPGKAPKLLIYAASNRGSGVPSRFSGSGSGTDFTFTISSLQPEDIATYYCQQSKTVPRTFGQGTKLEIKR | 0.00047 | – | 39 | 0.03 | 780000 | 1.1 | 420000

The remaining lines, values ahead:

Row | koff [1] [s⁻¹] | Kd [2] [nM] | Kd [3] [nM] | koff [3] [s⁻¹] | kon [3] [M⁻¹ s⁻¹] | Kd [1] [nM] | kon [1] [M⁻¹ s⁻¹] | Binder
11 | 0.0006 | 1.2 | – | – | – | – | – | Fab clone 129(T8)(H8) (Fab, V domains shown) VH: QVQLVQSGAEVKKPGASVKVSCKASGYTFTSYRIHWVRQAPGQGLEWMGEIYPSNSRTNYNEKFKSRATMTGDKSTSTVYMELSSLRSEDTAVYYCARKYYYGNSRRSWYFDVWGQGTTVTVS VL: DIQMTQSPSSLSASVGDRVTITCRASESVDNYGISFMTWYQQKPGKAPKLLIYAASNLGSGVPSRFSGSGSGTDFTFTISSLQPEDIATYYCQQSKTVPRTFGQGTKLEIKR
12 | 0.0012 | 2.3 | – | – | – | – | – | Fab clone 129(T26) (Fab, V domains shown) VH: QVQLVQSGAEVKKPGASVKVSCKASGYTFTSYWMHWVRQAPGQGLEWMGEIYPSNGRTNYNEKFKSRVTMTLDKSTSTVYMQLSSLRSEDTAVYYCARKYYYGNSRRSWYFDVWGQGTTVTVS VL: DIQMTQSPSSLSASVGDRVTITCRASESVDNYGISFMNWYQQKPGKPPKLLIYAASNQGSGVPSRFSGSGSGTDFTFTISSLQPEDIATYYCQQSKAVPRTFGQGTKLEIKR
13 | 0.0016 | 3.2 | – | – | – | – | – | Fab clone 129(T8)(E10) (Fab, V domains shown, Light chain changes are the same as in A5) VH: QVQLVQSGAEVKKPGASVKVSCKASGYTFTSYRLHWVRQAPGQGLEWMGEIYPSNGRTNYNEKFESRATMTGDKSTSTVYMELSSLRSEDTAVYYCARKYYYGNSRRSWYFDVWGQGTTVTVS VL: DIQMTQSPSSLSASVGDRVTITCRASESIDNYGISFLAWYQQKPGKAPKLLIYAASNRGSGVPSRFSGSGSGTDFTFTISSLQPEDIATYYCQQSKTVPRTFGQGTKLEIKR
14 | 0.0012 | 2.3 | – | – | – | – | – | Fab clone 129(T34) (Fab, V domains shown) VH: QVQLVQSGAEVKKPGASVKVSCKASGYTFTSYWMHWVRQAPGQGLEWMGEIYPSNGRTNYNEKFKSRVTMTRDTSTSTVYMQLSSLRSEDTAVYYCARKYYYGNSRRSWYFDVWGQGTTVTVS VL: DIQMTQSPSSLSASVGDRVTITCRASESVDNYGISFMNWYQQKPGQPPKLLIYAASNQGSGVPSRFSGSGSGTDFTFTISSLQPEDIATYYCQQSKTVPRTFGQGTKLEIKR
15 | 0.0009 | 1.8 | – | – | – | – | – | Fab clone 129(T8)(E12) (Fab, V domains shown) VH: QVQLVQSGAEVKKPGASVKVSCKASGYTFTSYWLHWVRQAPGQGLEWMGEIYPSNSRTNYNEKFKSRATMTGDKSTSTVYMELSSLRSEDTAVYYCARKYYYGNSRRSWYFDVWGQGTTVTVS VL: DIQMTQSPSSLSASVGDRVTITCRASESVDSYGISFMNWYQQKPGKAPKLLIYAASNLGSGVPSRFSGSGSGTDFTFTISSLQPEDIATYYCQQSKTVPRTFGQGTKLEIKR
16 | 0.0015 | 3 | – | – | – | – | – | Fab clone 129(T8)(H9) (Fab, V domains shown) VH: QVQLVQSGAEVKKPGASVKVSCKASGYTFTSYWRHWVRQAPGQGLEWMGEIYPSNGRTNYNEKFKSRATMTGDKSTSTVYMELSSLRSEDTAVYYCARKYYYGNSRRSWYFDVWGQGTTVTVS VL: DIQMTQSPSSLSASVGDRVTITCRASESVDNYGISFMNWYQQKPGKAPKLLIYAASNRGSGVPSRFSGSGSGTDFTFTISSLQPEDIATYYCQQSKTVPRTFGQGTKLEIKR
17 | 0.0003 | 0.6 | – | – | – | – | – | Fab clone 129(T8)(H8xE10)(9A) (Fab, V domains shown) VH: QVQLVQSGAEVKKPGASVKVSCKASGYTFTSYRIHWVRQAPGQGLEWMGEIYPSNSRTNYNEKFKSRATMTRDKSTSTVYMELSSLRSEDTAVYYCARKYYYGNSRRSWYFDVWGQGTTVTVS VL: DIQMTQSPSSLSASVGDRVTITCRASESIDNYGISFLAWYQQKPGKAPKLLIYAASNRGSGVPSRFSGSGSGTDFTFTISSLQPEDIATYYCQQSKTVPRTFGQGTKLEIKR
